As a reminder, the EC50 is the midpoint of the concentration-response curve. Read a high EC50 as a need for much substance.

Test [1] concerns the target 1aE2C、1bE2C、2aE2C、3aE2C、4aE2C、5aE2C、6aE2C. Kind of test: ELISA, coated E2C of seven subtypes. (In general: In an ELISA, binding on a coated surface is turned into a signal by an enzyme label.)
Test [2] concerns the target 1bE2C (Hepatitis C virus, subtype 1b). Kind of test: ELISA, coated 1bE2C, anti-human IgG-HRP detection.

B1: 抗体HNC-5 (antibody, V domains shown)
VH: QVQLVQSGAEVKKPGSSVKVSCKVSGVTFKGYAISWVRQAPGQGLEWMGSVIPIFGAANYAQQFQGRVTITADESTSTAYMELRSLKFDDTAVYYCGRGDQLLWGITAFHYWGQGTLVTVSS
VL: EIVLTQSPGTLPLSPGEGATLSCRASHIVTSNNLAWYQQKPGQAPRLLIYGASNRATGIPDRFSGSGSGTDFTLTISRLEPEDFAMYYCQQYGSSPGTFGQGTKLEIK
On to B1, for which the EC50 in test [1] was 0.00216 to 0.0226 µg/mL; in test [2] it was 0.016 µg/mL.
